Reference: publication PMC10397247

What was measured:
Test in all cases: two-hybrid library CCNG1;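 further: natural log of median RNA to DNA barcode read ratio; higher means stronger binding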
[1] = target: T1, 4H1338-bN
T1 chain: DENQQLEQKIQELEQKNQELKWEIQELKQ

[2] = target: T2, 4H1348-bN
T2 chain: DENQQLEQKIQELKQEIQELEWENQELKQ

[3] = target: T3, 4H1373-bN
T3 chain: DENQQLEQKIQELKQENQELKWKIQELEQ

[4] = target: T4, 4H1449-bN
T4 chain: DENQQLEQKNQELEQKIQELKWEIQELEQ

[5] = target: T5, 4H1544-bN
T5 chain: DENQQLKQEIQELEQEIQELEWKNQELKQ

[6] = target: T6, 4H1710-bN
T6 chain: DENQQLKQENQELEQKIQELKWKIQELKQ

[7] = target: T7, 4H1899-bN
T7 chain: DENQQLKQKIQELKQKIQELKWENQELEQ

[8] = target: T8, 4H1985-bN
T8 chain: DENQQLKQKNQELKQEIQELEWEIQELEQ

[9] = target: T9, 4H2702-bA
T9 chain: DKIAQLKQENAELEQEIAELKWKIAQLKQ

[10] = target: T10, 4H3613-bN
T10 chain: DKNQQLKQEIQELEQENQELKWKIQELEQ

[11] = target: T11, 4H3628-bN
T11 chain: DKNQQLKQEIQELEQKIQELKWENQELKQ

[12] = target: T12, 4H3817-bN
T12 chain: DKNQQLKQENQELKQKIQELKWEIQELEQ

[13] = target: T13, 4H3858-bN
T13 chain: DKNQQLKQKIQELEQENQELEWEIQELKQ

[14] = target: T14, 4H3974-bN
T14 chain: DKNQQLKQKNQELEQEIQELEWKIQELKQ

[15] = target: T15, 4H570-bN
T15 chain: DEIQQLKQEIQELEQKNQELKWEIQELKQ

[16] = target: T16, 4H850-bN
T16 chain: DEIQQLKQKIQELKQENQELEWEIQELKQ

interaction score [1]: 0.0248
interaction score [2]: -1.29
interaction score [3]: -1.16
interaction score [4]: -0.847
interaction score [5]: 0.114
interaction score [6]: -0.345
interaction score [7]: -2.73
interaction score [8]: -0.88
interaction score [9]: -2.23
interaction score [10]: -0.479
interaction score [11]: -0.229
interaction score [12]: -0.326
interaction score [13]: 1.37
interaction score [14]: -0.674
interaction score [15]: -0.567
interaction score [16]: 0.8
Binder: DENQQLEQKIQELEQKNQELKWEIQELKQ [4H1338-bN]
